Test results as given in the nanobody polyreactivity screen of Harvey et al. (2022).

Assay: yeast display, Sf9 membrane polyspecificity reagent, FACS + sequencing; frameworks hold sequencing errors
In short: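 A nanobody's polyreactivity label depends on the gate it was sorted from. Yeast display cells were stained with 10% biotinylated, detergent-solubilized Sf9 membrane reagent for 1 hour at 4 °C, enriched on streptavidin microbeads and sorted by FACS. The low and high (top ~1%) gates were set on anti-HA fluorescence for expression and streptavidin fluorescence for reagent binding.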

Sequence	polyreactivity (PSR sort gate)
QVQLVESGGGLVQAGGSLRLSCAASGYIYLPYAMGWYRQAPGKERELVAAIRWSGGSTYYADSVKGRFTISRDNAKNTVYLQMNSLKPEDTAVYYCAAYYVARDRRYPKAYSYEYWGQGTQVTVSS	high polyreactivity
QVQLVESGGGLVQAGGSLRLSCAASGYIYNGYAMGWYRQAPGKERELVAAIDWSGGSTYYADSVKGRFTISRDNAKNTVYLQMNSLKPEDTAVYYCNASEWLSASYYWGQGTQVTVSS	high polyreactivity
QVQLVESGGGLVQAGGSLRLSCAASGYLRVNAMGWYRQAPGTERELVAAITGNGGRTYYADSVKGRFTISRDNAKNTVYLQMNSLKPEDTAVYYCNIAGSSRSWFGSYYWGQGTQVTVSS	high polyreactivity
QVQLVESGGGLVQAGGSLRLSCAASGYNFKPNTMGWYRQAPGKERELVAAITRGGRTKYADSVKGRFTISRDNAKNTVYLQMNSLKPEDTAVYYCATRVHKSTDGYDYWGQGTQVTVSS	high polyreactivity
QVQLVESGGGLVQAGGSLRLSCAASGYNFKRYTMGWYRQAPGKERELVAAISGGDSTNYADSVKGRFTISRDNAKNTVYLHMNSLKPEDTAVYYCAAGGLTLWHGYILGYWGQGTQVTVSS	low polyreactivity
QVQLVESGGGLVQAGGSLRLSCAASGYNFSIYAMGWYRQAPGKERELVAAIRSDARTYYADSVKGRFTISRDNAKNTVYLQMNSLKPEDTAVYYCAADQYSYAANRPFYRGYYWGQGTQVTVSS	high polyreactivity
QVQLVESGGGLVQAGGSLRLSCAASGYNFWYNGMGWYRQAPGKERELVAAITSSSGTTYYADSVKGRFTISRDNAKTTVYLQMNSLKPVDTSVYYFNAVLSSNTQCRYPGDYWGQGTQVTVSS	low polyreactivity
QVQLVESGGGLVQAGGSLRLSCAASGYSFRLYAMGWYRQAPAKEWELVAAISKSGGSTYYADSVKGRFTISRDNANNTVYLQMNRLKPEETADYYCAADGVARYQKGQYDYWGQGTQVTVSS	high polyreactivity
QVQLVESGGGLVQAGGSLRLSCAASGYSFSYNAMGWYRQAPGKERELVAAMSRTGGSTNYADSVKGRFTISRDHAKKTVDLQMNSLKPEDTAVYDCAKRYRYPSWGEYGYWGLGTQVTVSS	high polyreactivity
QVQLVESGGGLVQAGGSLRLSCAASGYSFVRNAMGWYIQAPGKERELVAAISGSGGSTYYADSVKGRFTISRDNAKNTVYLQMNSLKPEDTAVYYCAADYATVTWRGIAYDYWGQGTQVTVSS	low polyreactivity
QVQLVESGGGLVQAGGSLRLSCAASGYTFAANAMGWYRQSPGKERELVAAITSGGGSTYYADSVKGRFTISRDNAKNTVYLKMNSLNPEDTAVDYCAALQSHGVDFDNWGQGTQVTVSS	low polyreactivity
QVQLVESGGGLVQAGGSLRLSCAASGYTFAGYAMGWYRQAPGKERELVAAISQSGGRTYYADSVKGRFTISRDNAKNTVYLQMNSLKPEDTAVYYCNARAYYAGTYYVSRYYYWGQGTQVTVSS	high polyreactivity
QVQLVESGGGLVQAGGSLRLSCAASGYTFAGYAMGWYRQAPGKERELVAAISSSGGRTYYADSVKGRFTISRDNAKNTVDLQINSLKPEDTAVYYCAAYVWAYYVPYNYGYWGQGTQVTVSS	high polyreactivity
QVQLVESGGGLVQAGGSLRLSCAASGYTFASYDMGWYRQAPGKERELVAAIDWSGGSTYYADSVKGRFTISRDNAKNTVYLQMNSLKPEDTAVYYCAAERPWTYGSDGMDFWGQGTQVTVSS	low polyreactivity
QVQLVESGGGLVQAGGSLRLSCAASGYTFAWYAMGWYRQAPGKERELVAAITTSGGGTYYADSVKGRFTISRDNAKNTVYLQMNSLKPEDTAVYYCAADTWRDGDDYWGQGTQVTVSS	low polyreactivity
QVQLVESGGGLVQAGGSLRLSCAASGYTFDANDMGWYRQAPGTERELVARITWTGGNTYADSVKGRFTISRDNAKNTVYLQMNSLKPEDTAVYYCNAELGYVSSENYWGQGTQVTVTS	low polyreactivity
QVQLVESGGGLVQAGGSLRLSCAASGYTFDGYAMGWYRPAPGKERELVAAINSGGGTYYADSVKGRFTISRDYAKNTVYLQMNSLIPDDTAVYYCNKKAYRKTGLDYWGQGTQVTVSS	low polyreactivity
QVQLVESGGGLVQAGGSLRLSCAASGYTFDGYAMGWYRQAPGKERELVAVITKSGGRKYYADSVKGRFTISRDNAKNTVYLQMNSLKREVTAVYYCAADDSGTKDIVEGEYWGQGTQVTVSS	high polyreactivity
QVQLVESGGGLVQAGGSLRLSCAASGYTFDKYAMGWYRQAPGKERELVAAISSGGRTYYADSVKGRFTISRDNAKKTVYLQMNSLKPEDTAVYYCAKGSAGRGMDSWGQGTQVTVSS	low polyreactivity
QVQLVESGGGLVQAGGSLRLSCAASGYTFDPYDMGRYRQAPGKERELVASISWSGGDTYYADSVKGRFTISRDNAKNTVYLQMNSLKPEDTAVYYCAADRYIPRSIIMDYWGQGTQVTVSS	low polyreactivity
QVQLVESGGGLVQAGGSLRLSCAASGYTFDSYTMGWYRQAPGKERELFAAITRSGSSTYYADSVKGRFTISRDNAKNTVYLLMNSLKPEDTAVYYCAAGWRRAAGIQYWYGYWGQGTQVTVSS	high polyreactivity
QVQLVESGGGLVQAGGSLRLSCAASGYTFEFNVMGWYRQAPGKERELVASIRWGSTSYADSVKGRFTISRDNAKNTVYLQMNSLKPEDTAVYYCAAVTYDYWGQGTQVTVSS	low polyreactivity
QVQLVESGGGLVQAGGSLRLSCAASGYTFFFYAMGWYRQAPGKEREFVAAITWRGDSTYYADSVKGRFTISRDNAKNTVYLQMNSLKPEDTAVYYCAADPGFTWSRRMDYWGQGTQVTVSS	low polyreactivity
QVQLVESGGGLVQAGGSLRLSCAASGYTFFHNAMGWYRQAPGKERELVATISRGGGSTYYADSVKGRFTISRDNAKNTVYLQMNSLKPEDTAVYYCNKGVITYRRGYWGQGTQVTVSS	low polyreactivity
QVQLVESGGGLVQAGGSLRLSCAASGYTFFRYAMGWYRQAPGKERELVAAITGSGGRTYYADSVKGRFTISRDNAKNTVYLQMNSLKPEDTAVYYCNRYGSGHSFIYDYWGQGTQVTVSS	high polyreactivity
QVQLVESGGGLVQAGGSLRLSCAASGYTFGKYVMGWYRQAPGKERELVAAISISGSGTYYADSVKGRFTISRDNAKNTVYLQMNSLKPEDTAVYYCAARGYGFPELDYWGQGTQVTLSS	high polyreactivity
QVQLVESGGGLVQAGGSLRLSCAASGYTFGTYAMGWYRQAPGKERELVATISIGGITYYADSVKGRFTISRDNAKNTVYLQMNSLIPEDTAVYYCAKAVTDPTSRSDPTGDDYWGQGTQVTVSS	low polyreactivity
QVQLVESGGGLVQAGGSLRLSCAASGYTFGTYDMGWYRQAPGKERELVAAISIGGSTNYADSVKGRFTISRDNAKNTVYLQKNSLKPEDTAVYYCAAEVNVGTLLLSVIVEDGDYWGQGTQVTVSS	low polyreactivity
QVQLVESGGGLVQAGGSLRLSCAASGYTFGYNVMGWYRQAPGKERELVAVISSGGTTYYADSVKGRFTISRDNAKNTVYLQMNSLKPEDTAVYYCNKRSAYKFSTHYGYYYWGQGTQVNVSS	high polyreactivity
QVQLVESGGGLVQAGGSLRLSCAASGYTFGYYAMGWYRQAPGKERELVAAISLNGGSTYYADSVKGRFTISRDNAKNTVYLQMNSLKPEDSAVYYCNALYNYAEIYGRGYCGQGTQVTVSS	high polyreactivity
